Residue numbers refer to the chain shown, from its start.

Data set [1] concerns the target ISG20 dExoIII (UniProt Q96AZ6 1-181, del147-157). In words: EMSA; no Mn2+; binding completely lost; ISG20 EMSA: 20 mM HEPES, 100 mM KCl, 1 mM DTT, 0.5 mg/ml BSA, 10% glycerol, 0.05 ug/ul poly[dI-dC], 30 C 30 min, 100 ng RNA, pH not stated; Pol EMSA: 20 mM Tris pH 7.5, 2 mM MgCl2, 15 mM NaCl, 20 mM KCl, 4 mM DTT, yeast tRNA, 30 C 1 h. The note with it: protein: recombinant; tags: 6xHis (pRSET A); label: 5'-32P; stem-loop with bulge and apical loop.

The target in data set [2] is ISG20 D94G (UniProt Q96AZ6 1-181, D94G). Nature of the data set: EMSA; no Mn2+; complex with altered mobility; ISG20 EMSA: 20 mM HEPES, 100 mM KCl, 1 mM DTT, 0.5 mg/ml BSA, 10% glycerol, 0.05 ug/ul poly[dI-dC], 30 C 30 min, 100 ng RNA, pH not stated; Pol EMSA: 20 mM Tris pH 7.5, 2 mM MgCl2, 15 mM NaCl, 20 mM KCl, 4 mM DTT, yeast tRNA, 30 C 1 h. The note with it: protein: recombinant; tags: 6xHis (pRSET A); label: 5'-32P; stem-loop with bulge and apical loop. Background: In EMSA bound probe runs differently from free probe, usually more slowly.

For data set [3], the target named is ISG20 dExoII (UniProt Q96AZ6 1-181, del86-101). Nature of the data set: EMSA; no Mn2+; binding not reduced, even increased vs wild type; ISG20 EMSA: 20 mM HEPES, 100 mM KCl, 1 mM DTT, 0.5 mg/ml BSA, 10% glycerol, 0.05 ug/ul poly[dI-dC], 30 C 30 min, 100 ng RNA, pH not stated; Pol EMSA: 20 mM Tris pH 7.5, 2 mM MgCl2, 15 mM NaCl, 20 mM KCl, 4 mM DTT, yeast tRNA, 30 C 1 h. Conditions: protein: recombinant; tags: 6xHis (pRSET A); label: 5'-32P; stem-loop with bulge and apical loop.

Data set [4] addresses ISG20 dExoI (UniProt Q96AZ6 1-181, del7-16). The data set is described as above. The note with it: protein: recombinant; tags: 6xHis (pRSET A); label: 5'-32P; stem-loop with bulge and apical loop.
Data set [5] deals with T1, ISG20 (wild type) (UniProt Q96AZ6 1-181). In words: EMSA; no Mn2+; dose-dependent; supershift with anti-His; competed by 10-40x cold epsilon; ISG20 EMSA: 20 mM HEPES, 100 mM KCl, 1 mM DTT, 0.5 mg/ml BSA, 10% glycerol, 0.05 ug/ul poly[dI-dC], 30 C 30 min, 100 ng RNA, pH not stated; Pol EMSA: 20 mM Tris pH 7.5, 2 mM MgCl2, 15 mM NaCl, 20 mM KCl, 4 mM DTT, yeast tRNA, 30 C 1 h. Conditions: protein: recombinant; label: 5'-32P; stem-loop with bulge and apical loop.

Data set [6] deals with T1, ISG20 (wild type). In words: EMSA; no Mn2+; ISG20 EMSA: 20 mM HEPES, 100 mM KCl, 1 mM DTT, 0.5 mg/ml BSA, 10% glycerol, 0.05 ug/ul poly[dI-dC], 30 C 30 min, 100 ng RNA, pH not stated; Pol EMSA: 20 mM Tris pH 7.5, 2 mM MgCl2, 15 mM NaCl, 20 mM KCl, 4 mM DTT, yeast tRNA, 30 C 1 h. Conditions: protein: recombinant; label: 5'-32P; hairpin.
Data set [7] concerns the target T1, ISG20 (wild type). Nature of the data set: EMSA; no Mn2+; bottom 4 bp stated indispensable for binding; ISG20 EMSA: 20 mM HEPES, 100 mM KCl, 1 mM DTT, 0.5 mg/ml BSA, 10% glycerol, 0.05 ug/ul poly[dI-dC], 30 C 30 min, 100 ng RNA, pH not stated; Pol EMSA: 20 mM Tris pH 7.5, 2 mM MgCl2, 15 mM NaCl, 20 mM KCl, 4 mM DTT, yeast tRNA, 30 C 1 h. The note with it: protein: recombinant; label: 5'-32P; hairpin.

B1: HBV epsilon full length (FL) (structured_RNA)
RNA: CUUGUUCAUGUCCUACUGUUCAAGCCUCCAAGCUGUGCCUUGGGUGGCUUUGGGGCAUGGACAUC
In the case of B1, the binding result in data set [1] is given as “no binding”; in data set [2], “binds”; in data set [3] it was “binds”; in data set [4], “binds”; in data set [5] it was “binds”.

B2: Lower stem + bulge (LS+B) (structured_RNA)
RNA: CUUGUUCAUGUCCUACUGUUCUGGGGCAUGGACAUC
Take B2: the binding result in data set [6] is on record as “binds”.

B3: Lower stem + bulge mutant (LS+Bm) (structured_RNA)
RNA: B2 RNA with G18A, U19A, U20A, C21A
Consider B3, for which the binding result in data set [6] was “binds”.

B4: Upper stem + loop (US+L) (structured_RNA)
RNA: UCAAGCCUCCAAGCUGUGCCUUGGGUGGCUUUG
Take B4: the binding result in data set [6] was “no binding”.

B5: Lower stem d4bp + bulge (LSd4+B) (structured_RNA)
RNA: CAUGUCCUACUGUUCUGGGGCAUG
As for B5, the binding result in data set [7] is recorded as “no binding”.

The values are drawn from publication PMC5388505, “Interferon-inducible ribonuclease ISG20 inhibits hepatitis B virus replication through directly binding to the epsilon stem-loop structure of viral RNA”.
